Molecular target: ornithine decarboxylase (ODC) present in Xenopus laevis oocytes
Experiment: cell-based or functional assay

Binder	IC50 for down-regulation of hSGLT1-mediated AMG uptake in oocytes (intracellular AMG <10 µM) [nM]	change of affinity for down-regulation of hSGLT1 when intracellular AMG is raised to 250 µM [fold]	IC50 for down-regulation of hSGLT1 in oocytes at about 0.25 mM intracellular AMG [nM]	IC50 for inhibition of SGLT1-mediated AMG uptake in oocytes without injection of AMG [nM]	IC50 without injection of AMG, against QSP [times]	increase of affinity at ~0.25 mM intracellular AMG against low intracellular AMG [fold]
hRS1-Reg (regulatory domain of human RS1, amino acids 16-98 of hRS1), wildtype (other, not shown: small tags and cut ends) SSGQSPDVGNPMSLARSVSASVCPIKPSDSDRIEPKAVKALKASAEFQLNSEKKEHLSLQDLSDHASSADHAPTDQSPAMPMQ	71	8				
QEP [QEP (glutamine-glutamic acid-proline tripeptide)]			0.0002	7.9	~40	> 15000
